Measurements as given in a protein production outcome set (Wang et al. 2014).

Assay: label from the status in PepcDB records

Row | Sequence | protein production
1 | MTVETFHPKQTTTLETPAKTLEAASADSVNTGNVATGNRIGFVSLGCPKNLVDSERILTQLRIDGYEVTNSYDNADLVIVNTCGFIDAAVEESLDAVREALEENGKVIVTGCLGAKENQIREVHPDVLEITGPHSYEAVLKHVHKYVPKPEHNPFTSLIPQTGVKLTPKHYAYLKISEGCDNRCTFCIIPALRGDLDSRGAGSVLDEAKRLVEAGVQEILVVSQDTSAYGKDKGGRTDFWNGMPVKQDITSLARQLGKMGAWVRLHYIYPYPWVDDLIPLMAEGLILPYLDIPMQHASPRILKMMKRPGRVDRQLEAIQRWREICPDLVIRSTFIVGFPGETEEDFEMLLDFLREARLDRVGCFKYSEVEGAVANTIAELISEEVKEDRYHRFMEVQAEISAERLARFVGRTMDILIDDVDEEGAIGRSFADAPEIDGMVFINGETELEPGMLVRAVITHSDEHDLWAELVDADAEDEVEALEHHHHHH | not failed
2 | MTVKAVFFDIDGTLLNDRKNIQKTTQKAIQQLKKQGIMVGLATGRGPGFVQPFLENFGLDFAVTYNGQYILTRDKVLYQNQLPKSMIYKVIRYANEKKREISLGTASGLAGSRIIDMGTSPFGQVISSFVPKSWARTVEGSFKHLIRRIKPQSFRNLVTIMREPIYQVVLVASQAETKKIQEKFPHIKITRSSPYSLDLISVDQSKIKGIERLGEMFGFDLSEVMAFGDSDNDLEMLSGVGIGIAMGNAETVVKDGAHFTTDSNNNDGISKALAHYGLIH | failed
3 | MTVQSGELRPNLIALKTIVYREVHRFMRIWPQTLLPPAITMVLYFVIFGNLIGRQIGDMGSFTYMQYIVPGLIMMSVITNSYGNVVSSFFGAKFQHSIEELMVSPVSPHTILIGYTLGGVLRGLMVGFIVTMLSMFFTDLQVHHLGVTIVVVVLTATIFSLLGFINAVFARNFDDISIIPTFVLTPLTYLGGVFYSINLLPPFWQTVSLANPVLHMVNAFRYGILGVSDIKISIALAFMIVATFVLYFGCARLLVSGRGMRQ | failed
4 | MTVRYFAAAAAAAGIETESLEIATGTSVAELVERLGARNPELARVLKRCSYLCDEVAVRDMAKPLVTPQTVDVLPPFAGGLEHHHHHH | failed
5 | MTVTAPNALNFECETGNYHTFCPISCVAWLYQKIEDSFFLVIGTKTCGYFLQNAMGVMIFAEPRYAMAELEEGDISAQLNDYEELKRLCLEIKRDRNPSVIVWIGTCTTEIIKMDLEGLAPKLEAEIGIPIVVARANGLDYAFTQGEDTVLAAMAARCPTSTAISDPEERNPIQRLLNFGKKKEEVQAQSSQYHPHPPLVLFGSLPDPVVTQLTLELKKQGIKVSGWLPAKRYTELPVIDEGYYVAGVNPFLSRTATTLIRRRKCQLITAPFPIGPDGTRTWIEQICATFGIQPQGLAEREAETWQKLSDYLELVRGKSVFFMGDNLLEISLARFLIRCGMRVLEIGIPYMDKRYQAAELALLSQTCAEMGHPLPTIVEKPDNYNQLQRIKALQPDLVITGMAHANPLEARGISTKWSVEFTFAQIHGFGNARDILELVTRPLRRNQALAGLGWQKLVAH | not failed
6 | MTVTNMTEWFAKGVEALHHDHVYLARACFEQAVTEQRSPLSSSYLALCQAKTRGTFSDAIASAREAVAADPANPALYHNLGCIYLLAGKRTEAIETFRQGLRVGLEHHHHHH | not failed
7 | MTVVSVDKDVEALSFSIVAEFDADVKRVWAIWEDPRQLERWWGPPTWPATFETHEFTVGGKAAYYMTGPDGTKARGWWQFTTIEAPDHLEFDDGFADEHGAPVDELGVTHATVKLEPLENRTRMTIISTFESEEQMQKMAEMGMEEGMREAIEQIDAVLSEPANALEHHHHHH | not failed
8 | MTWLLIFASLAYVIFLFAVATWGDRLGSWANKISHKPVVYSMSLAIYCTSWTYYGAVGNAAVDGWAFFPILLGPILLFLFGIRILEKLVSVSKQQNITSIADFISSRFGKRRRLAVAVTAIAAVAIIPYIALQLKAVGISFAVLTESSGVMAQFSIKELGAAALMAIFAMLFGTRHVEVTEYRSGMILAIAVESMIKLVALLAAGVFAWFLIQGDAQSDLFSSFSDATKPQWSFAAFGEFEFIVQTLMAAGAILCLPRQFHVAVVDNVDVRHLRTARWGFPLYLALTAAAIVPIAIAGTFYLSATTDGSTFALQLPLLKDQLWLSLVIFIGGISAATAMVIIASVTLSTMITNDVIMPILLQRESRLPLKHRRREYDRALLLIRRVAIAVTMVLSFLCYYFWAARTNLVSIGLLAFSLVLQLLPALLAALYWRKGHARGVYAGLAAGSVGWVLAVLIPLYTDLQLTDVEIITRGTVVSLALNCFGFIVFSLLAKPRLVDRIQATAFVKPRAALPDLHFNKNDSATNADMLLLLRTFLGAERAQQLMQYYQRPENTELPLEGVAEKTFISFVERAIAGVLGSATARSLVDAALRDKQLNLEEVVHFFDDTTQALQTQQSILFSSLENLAQGISVVDAELRLVAWNKRYMDLFQYPEGMVKPGQPIATLIRYNAERGECGPGDVDGLVNKRLRYMQLGSAHRFIRRRADGRVIEMVGNPLPTGGFVTSFTDITSHVETQQALEDANIDLEQRVDVRTQEIREINQELTAEIDRRRQVEDELKKAKAEAEATNASKTRFLALASHDILQPLNAARLYLSAIQEKELSERNLSLVGKLDTALGSTEHLLSTLLSIAKMDQGALKPQFRHVQLSSLLEPLVEEYAVLAEQRKLDFRAFYKDRPVYTDPTYLRRIVQNFLSNAIKYTQRGSVLLGVRKRGDELQIAVWDTGPGIAAQQQNKVFDAFYRVQNQTVDGVGLGLSVAQRMGEQLNCDVQVESVEGKGSCFSVRVPLGNAAQVVSRPKKQLEDALSDPLQLIVVDDDNENLSALSALLNKWGCEALTFNRYSKALAYAKAHSQNKAPHGLLLDYQLGDGDGLQLAQELRDIWQQQIPAALVTAMRDDAVKQAARKSGLQFLPKPAKPAALKAFLKYISTRKAGGARS | failed
9 | MTWLMVAVVVVVAAAGLLRWRRPAWYWLTFGALVATVRILVRYASVMEACGLTVPPSRWRLALARMTNRPAPESRPPRILRLRPTRTGLVLRLKLQPGQDAFDVAAATDRLRHSFGVYGVTSRELRSGVVEVRMTGYDVLQRVQMPAPAEPRPMRIPVALREDGAVHYRDYRAVPHGLTLGATESGKSVYQRNLVAGLAPHHVALVGIDCKQGVELFPLARRFSALADNPDTALDLLEALVGHMKDVYQLIRAEQRISVAVPDAEIAADIWDLREDLRAVPVVVLVDEVAELALFASKDEEKRRDRIITALVRLAQLGRAAGIYLEICGQRFGSELGKGITMLRAQLTGRTAHRVNDETSADMAFGDLSPDAVLAAIQLPTDTPGIAVTGDSTGGWARIRAPHTTKSFPDRQKRLAELWLIEIASDMSRGRYVDPRAARVTFKGYAVKWLETHGIDPASQVVVEQRLRLHAFRLIGSRPLDSFRPEHIRGLVSALENDPAVSGGYARNIYGDVRAVLSAAVDDGLLPRNPCSAKSVRPPAVEQRRVVPWLPEQVQAVRAALPQRYRPMVDMGAGCGLRQGEIVGLAEDAVDFASGIVRVLRQVKLIRGKAVFAPPKCNKERDVPLPPSVADALPAHMDAFKPVEITLPWRKPDGPKVSARLLFTNTASGLVWRSNFNVQEWKPALAAAGLISEAGADGKYESAREHGMHALRHFYASVLLDAGESIKAVSEYLGHADPGLTLRVYAHLMPSSQERTRSAIDQSLRFSG | failed
10 | MTWRKLSICMMVKDEEKNLKRCLESLKPILKGDEVELIVVDTGSKDRTVEIAKQYTNNIFYKPWNYNFSEMRNYTISLAKGEWIFILDADEELEDAKIILKEIEMAEKEGANAINIAVKNLVEENNKQNFVFGFSPRLFRNGFIKYEGAVHNQPIFRPPIYNSKIVIYHYGYIMNDTKLMEYKYKRTVSLLKKELEKDPLNIYYRYQLGVSYSMYGKIREAIEEFGKVYNLLKMENSEIKKGLVVVYGLYANNLLLLGLFDKALEVAEEGLNFNDEYIDLYYIAGLSLYAMGRRQEALVYFKKYMDLFKKVDQIKLLYDARVVFYNISNSYFDNVNAMVVQYLLDINNFLEAKVHIEQFKDNKLKLQYSTLLHIKEKNFNELFDFYSSCNQEDKEKVSEFIEKYITYFKFDEDERLEIYKKFSESNDVYGKYCCIITKKEKVESAILNIFDSNVFELLPSFYTKVLFRVAEKKEFLLETLKKIDVMVLRAKTAEALAAKFIDFEDVIQLLEVMKKEKADIDISARYIALALLVLLNFPRQSDERLYEIFLNYTENGILLISRLYKSEEIEEKYRYFLSEEEKYFALMYMIYLSLQEKRMDKSIKYLREAISTMPKLVKHLKRFSKDILGVDV | failed
